Data published in US20260015399A1 (Boehringer Ingelheim, published 2026).
*1 amine or outer side, *2 acyl side, *3 side chain or, on linkers, in order; H or OH if unused. Side-chain parts run from the residue outwards. The star is where a group is joined. C18 diacid = O=C(O)CCCCCCCCCCCCCCCCC(=O)*; γGlu = O=C(O)[C@H](CCC(=O)[*:2])N[*:1]; Isovaleryl = CC(C)CC(=O)*; Ahx = NCCCCCC(=O)O

T1: human NPY2 receptor (human, UniProt P49146 1-381)
T1 sequence (looked up): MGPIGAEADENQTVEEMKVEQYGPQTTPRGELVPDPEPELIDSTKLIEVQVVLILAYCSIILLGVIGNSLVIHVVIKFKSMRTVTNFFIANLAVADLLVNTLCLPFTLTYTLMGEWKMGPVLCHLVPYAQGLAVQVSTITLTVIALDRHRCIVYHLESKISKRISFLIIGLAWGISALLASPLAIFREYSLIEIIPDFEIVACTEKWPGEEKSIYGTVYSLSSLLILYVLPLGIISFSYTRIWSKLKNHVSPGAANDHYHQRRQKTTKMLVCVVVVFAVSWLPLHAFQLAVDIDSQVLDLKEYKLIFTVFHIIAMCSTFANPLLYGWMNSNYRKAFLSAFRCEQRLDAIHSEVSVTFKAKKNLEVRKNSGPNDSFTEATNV

T2: human NPY1 receptor (human, UniProt P25929 1-384)
T2 sequence (looked up): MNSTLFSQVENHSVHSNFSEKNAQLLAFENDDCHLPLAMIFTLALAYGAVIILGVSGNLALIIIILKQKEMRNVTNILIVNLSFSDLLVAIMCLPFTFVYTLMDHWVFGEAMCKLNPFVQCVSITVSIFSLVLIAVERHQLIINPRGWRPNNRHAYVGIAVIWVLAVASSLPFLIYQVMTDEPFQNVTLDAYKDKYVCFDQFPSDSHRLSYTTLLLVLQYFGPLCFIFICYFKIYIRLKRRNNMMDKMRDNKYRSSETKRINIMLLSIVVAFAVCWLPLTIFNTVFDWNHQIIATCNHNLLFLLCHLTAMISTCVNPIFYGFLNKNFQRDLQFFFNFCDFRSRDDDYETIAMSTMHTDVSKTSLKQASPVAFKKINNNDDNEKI

T3: human NPY5 receptor (human, UniProt Q15761 1-445)
T3 sequence (looked up): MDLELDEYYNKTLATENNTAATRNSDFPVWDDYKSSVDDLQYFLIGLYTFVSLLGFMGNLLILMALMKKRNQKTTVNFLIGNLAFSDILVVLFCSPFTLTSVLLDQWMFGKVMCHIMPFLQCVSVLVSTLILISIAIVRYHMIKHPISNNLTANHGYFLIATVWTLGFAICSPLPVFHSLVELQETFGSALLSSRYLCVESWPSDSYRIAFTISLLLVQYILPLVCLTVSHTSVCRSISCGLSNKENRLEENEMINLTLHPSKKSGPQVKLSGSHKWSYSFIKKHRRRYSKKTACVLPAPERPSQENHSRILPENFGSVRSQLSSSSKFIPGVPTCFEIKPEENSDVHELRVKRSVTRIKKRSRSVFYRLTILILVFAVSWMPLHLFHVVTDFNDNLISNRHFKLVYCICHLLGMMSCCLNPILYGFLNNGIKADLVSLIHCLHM


How the values were obtained:
human NPY2 receptor [1] = target: T1, human NPY2 receptor; experiment: cell-based or functional assay
human NPY1 receptor = target: T2, human NPY1 receptor; experiment: cell-based or functional assay
human NPY5 receptor = target: T3, human NPY5 receptor; experiment: cell-based or functional assay
human NPY4 receptor = human NPY4 receptor (human, UniProt P50391 1-375); experiment: cell-based or functional assay
human NPY2 receptor [2] = target: T1, human NPY2 receptor; experiment: RLB: displacement of 125I-PYY(1-36) from hNPY2R membranes

human NPY4 receptor, sequence (P50391 whole entry): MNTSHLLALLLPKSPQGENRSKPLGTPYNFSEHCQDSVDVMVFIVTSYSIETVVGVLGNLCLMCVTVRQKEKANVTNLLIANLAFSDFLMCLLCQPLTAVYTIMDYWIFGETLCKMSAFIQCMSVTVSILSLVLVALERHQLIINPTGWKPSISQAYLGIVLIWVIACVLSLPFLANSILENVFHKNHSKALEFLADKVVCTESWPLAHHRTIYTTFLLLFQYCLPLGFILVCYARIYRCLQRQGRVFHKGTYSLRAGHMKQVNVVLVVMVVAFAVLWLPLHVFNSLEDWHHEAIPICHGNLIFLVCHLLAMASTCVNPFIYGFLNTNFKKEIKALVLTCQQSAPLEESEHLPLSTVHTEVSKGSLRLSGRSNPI

Row | Binder | EC50, HTRF cAMP Gi assay (human NPY2 receptor [1]) [nM] | EC50, HTRF cAMP Gi assay (human NPY1 receptor) [nM] | EC50, HTRF cAMP Gi assay (human NPY5 receptor) [nM] | EC50, HTRF cAMP Gi assay (human NPY4 receptor) [nM] | Ki (human NPY2 receptor [2]) [nM]
1 | Isovaleryl-APEK([Ahx-γGlu-C18 diacid])PEADASPEEIQRYYISLRHYYNWLTRQRY-NH2 (SMILES CC[C@H](C)[C@H](NC(=O)[C@H](Cc1ccc(O)cc1)NC(=O)[C@H](Cc1ccc(O)cc1)NC(=O)[C@H](CCCNC(=N)N)NC(=O)[C@H](CCC(N)=O)NC(=O)[C@@H](NC(=O)[C@H](CCC(=O)O)NC(=O)[C@H](CCC(=O)O)NC(=O)[C@@H]1CCCN1C(=O)[C@H](CO)NC(=O)[C@H](C)NC(=O)[C@H](CC(=O)O)NC(=O)[C@H](C)NC(=O)[C@H](CCC(=O)O)NC(=O)[C@@H]1CCCN1C(=O)[C@H](CCCCNC(=O)CCCCCNC(=O)CC[C@H](NC(=O)CCCCCCCCCCCCCCCCC(=O)O)C(=O)O)NC(=O)[C@H](CCC(=O)O)NC(=O)[C@@H]1CCCN1C(=O)[C@H](C)NC(=O)CC(C)C)[C@@H](C)CC)C(=O)N[C@@H](CO)C(=O)N[C@@H](CC(C)C)C(=O)N[C@@H](CCCNC(=N)N)C(=O)N[C@@H](Cc1c[nH]cn1)C(=O)N[C@@H](Cc1ccc(O)cc1)C(=O)N[C@@H](Cc1ccc(O)cc1)C(=O)N[C@@H](CC(N)=O)C(=O)N[C@@H](Cc1c[nH]c2ccccc12)C(=O)N[C@@H](CC(C)C)C(=O)N[C@H](C(=O)N[C@@H](CCCNC(=N)N)C(=O)N[C@@H](CCC(N)=O)C(=O)N[C@@H](CCCNC(=N)N)C(=O)N[C@@H](Cc1ccc(O)cc1)C(N)=O)[C@@H](C)O) [Compound 11] | 0.136 | > 5000 | > 5000 | > 5000 | 1.4
2 | Isovaleryl-APEK([Ahx-γGlu-C18 diacid])PEAEASPEELQRYYVSLRHYYNWLTRQRY-NH2 [Compound 122] | – | > 5000 | > 5000 | > 5000 | 2.73
3 | Isovaleryl-APEK([Ahx-γGlu-C18 diacid])PEEDAEPEEVQRYYVSLRHYYNWLTRQRY-NH2 (SMILES CC(C)CC(=O)N[C@@H](C)C(=O)N1CCC[C@H]1C(=O)N[C@@H](CCC(=O)O)C(=O)N[C@@H](CCCCNC(=O)CCCCCNC(=O)CC[C@H](NC(=O)CCCCCCCCCCCCCCCCC(=O)O)C(=O)O)C(=O)N1CCC[C@H]1C(=O)N[C@@H](CCC(=O)O)C(=O)N[C@@H](CCC(=O)O)C(=O)N[C@@H](CC(=O)O)C(=O)N[C@@H](C)C(=O)N[C@@H](CCC(=O)O)C(=O)N1CCC[C@H]1C(=O)N[C@@H](CCC(=O)O)C(=O)N[C@@H](CCC(=O)O)C(=O)N[C@H](C(=O)N[C@@H](CCC(N)=O)C(=O)N[C@@H](CCCNC(=N)N)C(=O)N[C@@H](Cc1ccc(O)cc1)C(=O)N[C@@H](Cc1ccc(O)cc1)C(=O)N[C@H](C(=O)N[C@@H](CO)C(=O)N[C@@H](CC(C)C)C(=O)N[C@@H](CCCNC(=N)N)C(=O)N[C@@H](Cc1c[nH]cn1)C(=O)N[C@@H](Cc1ccc(O)cc1)C(=O)N[C@@H](Cc1ccc(O)cc1)C(=O)N[C@@H](CC(N)=O)C(=O)N[C@@H](Cc1c[nH]c2ccccc12)C(=O)N[C@@H](CC(C)C)C(=O)N[C@H](C(=O)N[C@@H](CCCNC(=N)N)C(=O)N[C@@H](CCC(N)=O)C(=O)N[C@@H](CCCNC(=N)N)C(=O)N[C@@H](Cc1ccc(O)cc1)C(N)=O)[C@@H](C)O)C(C)C)C(C)C) [Compound 53] | 0.352 | > 5000 | > 5000 | > 5000 | 3.07
4 | Isovaleryl-APEK([Ahx-γGlu-C18 diacid])PEEDASEEEIQRYYVSLRHYYNWLTRQRY-NH2 (SMILES CC[C@H](C)[C@H](NC(=O)[C@H](CCC(=O)O)NC(=O)[C@H](CCC(=O)O)NC(=O)[C@H](CCC(=O)O)NC(=O)[C@H](CO)NC(=O)[C@H](C)NC(=O)[C@H](CC(=O)O)NC(=O)[C@H](CCC(=O)O)NC(=O)[C@H](CCC(=O)O)NC(=O)[C@@H]1CCCN1C(=O)[C@H](CCCCNC(=O)CCCCCNC(=O)CC[C@H](NC(=O)CCCCCCCCCCCCCCCCC(=O)O)C(=O)O)NC(=O)[C@H](CCC(=O)O)NC(=O)[C@@H]1CCCN1C(=O)[C@H](C)NC(=O)CC(C)C)C(=O)N[C@@H](CCC(N)=O)C(=O)N[C@@H](CCCNC(=N)N)C(=O)N[C@@H](Cc1ccc(O)cc1)C(=O)N[C@@H](Cc1ccc(O)cc1)C(=O)N[C@H](C(=O)N[C@@H](CO)C(=O)N[C@@H](CC(C)C)C(=O)N[C@@H](CCCNC(=N)N)C(=O)N[C@@H](Cc1c[nH]cn1)C(=O)N[C@@H](Cc1ccc(O)cc1)C(=O)N[C@@H](Cc1ccc(O)cc1)C(=O)N[C@@H](CC(N)=O)C(=O)N[C@@H](Cc1c[nH]c2ccccc12)C(=O)N[C@@H](CC(C)C)C(=O)N[C@H](C(=O)N[C@@H](CCCNC(=N)N)C(=O)N[C@@H](CCC(N)=O)C(=O)N[C@@H](CCCNC(=N)N)C(=O)N[C@@H](Cc1ccc(O)cc1)C(N)=O)[C@@H](C)O)C(C)C) [Compound 55] | 0.352 | > 5000 | > 5000 | > 5000 | 2.96
5 | Isovaleryl-APEK([Ahx-γGlu-C18 diacid])PEADASPEELQRYYVSLRHYYNWLTRQRY-NH2 (SMILES CC(C)CC(=O)N[C@@H](C)C(=O)N1CCC[C@H]1C(=O)N[C@@H](CCC(=O)O)C(=O)N[C@@H](CCCCNC(=O)CCCCCNC(=O)CC[C@H](NC(=O)CCCCCCCCCCCCCCCCC(=O)O)C(=O)O)C(=O)N1CCC[C@H]1C(=O)N[C@@H](CCC(=O)O)C(=O)N[C@@H](C)C(=O)N[C@@H](CC(=O)O)C(=O)N[C@@H](C)C(=O)N[C@@H](CO)C(=O)N1CCC[C@H]1C(=O)N[C@@H](CCC(=O)O)C(=O)N[C@@H](CCC(=O)O)C(=O)N[C@@H](CC(C)C)C(=O)N[C@@H](CCC(N)=O)C(=O)N[C@@H](CCCNC(=N)N)C(=O)N[C@@H](Cc1ccc(O)cc1)C(=O)N[C@@H](Cc1ccc(O)cc1)C(=O)N[C@H](C(=O)N[C@@H](CO)C(=O)N[C@@H](CC(C)C)C(=O)N[C@@H](CCCNC(=N)N)C(=O)N[C@@H](Cc1c[nH]cn1)C(=O)N[C@@H](Cc1ccc(O)cc1)C(=O)N[C@@H](Cc1ccc(O)cc1)C(=O)N[C@@H](CC(N)=O)C(=O)N[C@@H](Cc1c[nH]c2ccccc12)C(=O)N[C@@H](CC(C)C)C(=O)N[C@H](C(=O)N[C@@H](CCCNC(=N)N)C(=O)N[C@@H](CCC(N)=O)C(=O)N[C@@H](CCCNC(=N)N)C(=O)N[C@@H](Cc1ccc(O)cc1)C(N)=O)[C@@H](C)O)C(C)C) [Compound 196] | 0.086 | – | > 5000 | – | 3.57
